In patent US20220273751A1, “GPCR HETEROMER INHIBITORS AND USES THEREOF” (GPCR THERAPEUTICS, INC., priority 2019, published 2022):

Target: CXCR4 (C-X-C Motif Chemokine Receptor 4) (human) (UniProt P61073)
Test: cell-based or functional assay

Sequence of CXCR4 (C-X-C Motif Chemokine Receptor 4) (human) (P61073 whole entry): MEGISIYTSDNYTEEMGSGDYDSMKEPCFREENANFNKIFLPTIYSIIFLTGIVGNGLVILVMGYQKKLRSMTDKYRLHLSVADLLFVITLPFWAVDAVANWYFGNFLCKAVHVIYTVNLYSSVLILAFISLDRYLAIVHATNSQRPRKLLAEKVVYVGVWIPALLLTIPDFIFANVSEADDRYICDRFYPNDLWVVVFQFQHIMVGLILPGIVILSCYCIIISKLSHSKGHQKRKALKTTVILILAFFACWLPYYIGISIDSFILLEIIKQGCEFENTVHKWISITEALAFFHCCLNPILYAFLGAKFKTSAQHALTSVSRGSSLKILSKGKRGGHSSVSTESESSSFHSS

Substance: BKT140 (peptide)
- IC50 of Ca2+ response, MDA-MB-231 cells expressing CXCR4 alone: 579 nM
- IC50 of Ca2+ response, MDA-MB-231 cells with CXCR4 + ADRB2, with Carvedilol 600 nM: 1.94 nM
- IC50 of Ca2+ response, MDA-MB-231 cells with CXCR4 + ADRB2, without Carvedilol: 88.7 nM
